This series deals with the molecule itself. The series is described as follows: crystal structure.

B1: mCldn3cryst P134G (domain or fragment)
chain: MSMGLEITGTSLAVLGWLCTIVCCALPMWRVSAFIGSSIITAQITWEGLWMNCVVQSTGQMQCKMYDSLLALPQDLQAARALIVVSILLAAFGLLVALVGAQATNAVQDETAKAKITIVAGVLFLLAALLTLVGVSWSANTIIRDFYNPLVPEAQKREMGAGLYVGWAAAALQLLGGALLAA
notes: also called P134G mutant; source: Sf9 insect cells (baculovirus), purified (as mCldn3cryst)
In the case of B1, the binding result is “binds”.

B2: mCldn3cryst P134A (domain or fragment)
chain: MSMGLEITGTSLAVLGWLCTIVCCALPMWRVSAFIGSSIITAQITWEGLWMNCVVQSTGQMQCKMYDSLLALPQDLQAARALIVVSILLAAFGLLVALVGAQATNAVQDETAKAKITIVAGVLFLLAALLTLVAVSWSANTIIRDFYNPLVPEAQKREMGAGLYVGWAAAALQLLGGALLAA
notes: also called P134A mutant; source: Sf9 insect cells (baculovirus), purified (as mCldn3cryst)
As for B2, the binding result is listed as “binds”.

These data come from article PMC6379431 (Nature Communications, 2019).
